According to the supplement of paper PMC12042874:
± gives the uncertainty stated by the source.

Test: amyloid nucleation score (Sup35N fusion, yeast selection) (log enrichment); library NNK3; higher = more nucleation; inactive = no reads after selection
How it was run: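 Output and input plasmid inserts were sequenced by Illumina after psi-negative yeast carrying Sup35N fused to peptides of 20 random codons had been induced 24 hours with 100 μM copper sulfate and grown 7 days at 30°C on medium lacking adenine and uracil. The nucleation score is the DiMSum log enrichment of output over input reads, centred on the mode score of non-aggregating sequences. Sequences with under 100 input reads were excluded.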

| Substance | amyloid nucleation score |
| --- | --- |
| CIVRIVQST | inactive |
| CIWLTVIFSWRYEVG | inactive |
| CKFEMSEIDFVYASSIFR | inactive |
| CKLYHIIGLYLGVVVL | inactive |
| CKSIPWVFYWFLLLYGYL | inactive |
| CKTIKVVLAALGFCYPQYSL | inactive |
| CKYSMRLDCLARNNDLKVLL | inactive |
| CLCFCCCSRVHYGTLFRNSA | 2.98 ± 0.052 |
| CLCSTRVRGSFPPDSTVHNF | inactive |
| CLCWKAVLDRELFKSGFTAA | inactive |
| CLFVCDYGLFECGQMVVEVY | inactive |
| CLGYRFVWGVPFVKFDRIIW | inactive |
| CLLSYSQPLGKGFGSTRDRC | inactive |
| CLPQHKISNH | inactive |
| CLSFYCTVSKKVRRKAVTPF | 0.807 ± 0.2 |
| CLSLLNFDVCVMRSVVRVFA | inactive |
| CMFSPPCDLRGETVLRRPSL | 0.143 ± 0.62 |
| CMMSWIDSNFRGSEMLTH | inactive |
| CMNIRPMATLTESSS | inactive |
| CMPHG | inactive |
| CMQLVMSYTVCFVDGGVLA | inactive |
| CMRSESCVVPRNNKFFLLSG | -0.361 ± 0.96 |
| CMTLYLLSLSC | inactive |

| Substance | amyloid nucleation score |
| --- | --- |
| CMTTASVQDKMVLLVWLLDE | inactive |
| CNFNLILLMDGIKGSFL | 2.35 ± 0.065 |
| CNIEGYNETNVCECWNMELL | inactive |
| CNIVSMFGCSGVMMACAAVV | inactive |
| CNKSFRLYEMM | inactive |
| CNLVDSYNSKRMVNSTSMPF | inactive |
| CNMSPKNFSIFSFVPNKPVG | inactive |
| CNTGPEIMASVAKVDVWVIK | 1.65 ± 0.11 |
| CNVRFCIDFMIFMVISDSKD | 1.11 ± 0.14 |
| CNYCGPEAFGILFDYWTMSY | inactive |
| CPESCSN | inactive |
| CPKALRIIGRSYCRTSEVTS | inactive |
| CPTPGWTLKRVGRVYECRG | inactive |
| CQTGRYRESALSVLARKLNA | inactive |
| CRINEWLGIGNSVSSSDHMG | inactive |
| CRISSPAGVNLLDSSRLSRL | inactive |
| CRKNRSFGDGDLKFCANLNC | inactive |
| CRLVAEYGLQVKPMQR | inactive |
| CRRPKRNH | inactive |
| CRRVMVILMH | inactive |
| CRTQYKCRIAIWGYKFQPER | inactive |
| CSALC | inactive |
| CSATRYFCRNLRRVCVNEYG | inactive |

| Substance | amyloid nucleation score |
| --- | --- |
| CSCFYNNRIISSPMLLWLVQ | inactive |
| CSIVVNLMYLLVDACMGPKG | inactive |
| CSKIFGRERMFYRVDMVS | inactive |
| CSMLASMWTTIRYLLLLEVA | 1.49 ± 0.09 |
| CSNLVLP | -0.765 ± 1.4 |
| CSPVTCEISDWIV | inactive |
| CSQIPLHKLTMCMLY | inactive |
| CSRSAENNFMMNLLNTIRVL | inactive |
| CSRSSLLLVDWPMVGSDKLL | inactive |
| CSYAEKIVKGLAPVFLKVN | inactive |
| CTNKFVWKFVKFNNLCLLAY | inactive |
| CTNKSSVYEFCYCVADMANV | inactive |
| CTRCVFSIR | -0.056 ± 0.57 |
| CTSESVSYNMDRTKCQMYLT | inactive |
| CTVGIYLLNLC | 2.45 ± 0.084 |
| CVDFR | inactive |
| CVEVLWERPSGTRAGMVGLL | -0.792 ± 1.4 |
| CVGSVPVMTKMVGDMGMASR | inactive |
| CVKVGDGCLHASIGAR | inactive |
| CVLAFVVVLLGWGHSSGAGG | 0.825 ± 0.2 |
| CVRFPANLSFGSDRKAKLS | inactive |
| CVRSTCQALGMGRWEPHCAI | inactive |
| CVSNLLTTYNNAFRFAHMVS | inactive |

| Substance | amyloid nucleation score |
| --- | --- |
| CVTYSYCYCQANHFHCRCQQ | 2.88 ± 0.062 |
| CVVNLHSRIEARLLQIYRAV | inactive |
| CVVTGMMYTVFDKAFCFNAS | 1.89 ± 0.11 |
| CVVVETLLNMRRSRY | inactive |
| CVYFGRVNFTVGLLPSLNGF | 1.46 ± 0.14 |
| CVYGKYLFLVIPEDEPTLYV | 0.439 ± 0.31 |
| CVYIDGSIAVGWYMKFILTF | inactive |
| CWDFKGFMMESLTNRSPYAS | inactive |
| CWFNPDPGLKWF | inactive |
| CWLAAFSFRRSVLSCQGGQG | inactive |
| CWLNLGVLKSLY | inactive |
| CWTAPLSKFLRVWVTIPYNL | inactive |
| CWTVMFCF | 1.43 ± 0.11 |
| CYAGRLSETSNWLLLCVELE | inactive |
| CYFSIYYYSYLLFRMLGVKW | inactive |
| CYLISILPLGLFIDSLAWVT | inactive |
| CYLNQSKYAARWNCGDNKME | inactive |
| CYMVEDRRIDSRSAVSWRYV | inactive |
| CYRYAIMNAFS | inactive |
| CYSKYSS | inactive |
| CYSLFSLPMKALRSISVRCW | 1.52 ± 0.13 |
| CYSNSEPISAYDD | inactive |
| CYVDVI | inactive |

| Substance | amyloid nucleation score |
| --- | --- |
| CYVIILVRL | inactive |
| CYVPVKGLYMPPYGTLRLWG | inactive |
| CYYDSLYCVEFHFCNYIVVL | -0.127 ± 0.99 |
| DACSVNEMSYVDTAGIWVWR | inactive |
| DADSMRWNSPGLCH | inactive |
| DAFIGYHYLGGLISGIWSSR | 0.693 ± 0.097 |
| DASSDRVSVYSAYK | inactive |
| DAYREY | -0.557 ± 1.2 |
| DCGATSLKTMASGLRMKRTS | inactive |
| DCLDNK | inactive |
| DCLFRNLMS | inactive |
| DCLMDGDFRILGSFIHRFSE | inactive |
| DCLSVEFVLNTRVAYWCTCA | -0.092 ± 0.52 |
| DCRWVCKFYPPVFNVIVEKV | inactive |
| DCVRVRVLKSGTYLLYRSEA | inactive |
| DDASFIMERI | inactive |
| DDCTTVF | inactive |
| DDLIGSIFKFLVLSRGKT | inactive |
| DDLMASTMGSSMG | inactive |
| DDYYFG | inactive |
| DECMARLNDWEGYAKD | inactive |
| DEISSFER | inactive |
| DELTNLPCY | -0.405 ± 0.79 |

| Substance | amyloid nucleation score |
| --- | --- |
| DEMRKGRWHGDRLGRSDRQE | inactive |
| DETVMFSFKFIVKSVVVDPR | inactive |
| DFEVSMGQR | -0.015 ± 0.8 |
| DFGHVIQSSWNSMNSAQSVA | inactive |
| DFGVYNEHHGYLILGIKRDQ | inactive |
| DFHVLRYVLFRWMWIIWRKG | inactive |
| DFIRRVHYLKLSVWDVMTMR | inactive |
| DFLVVYNAMCDKELVDTGEI | inactive |
| DFRGDLFELMMIYGRGMVLT | inactive |
| DFSGVSLDVITRRCLGFIGA | inactive |
| DFWRTIEGKMSLALI | inactive |
| DFWRYDSS | inactive |
| DFYGCGFTFTRSFFRQWFIG | 1.09 ± 0.11 |
| DGDYL | inactive |
| DGFYYSALLMFLV | inactive |
| DGGRTSLLLTEKKVR | inactive |
| DGHGRRHSRVQIRGIVACSD | inactive |
| DGLQSN | inactive |
| DGMSMCRQLLKGVQKPDYLL | inactive |
| DGNGLNTRGNLTSGIFHRQY | inactive |
| DGNLPPNWLKGACTFRWTFI | inactive |
| DGPHLPDHGGLM | inactive |
| DGQARISRYSTWLEEFLRCG | inactive |

| Substance | amyloid nucleation score |
| --- | --- |
| DGRCKMLPVESGGAC | inactive |
| DGRSIEFIDGCDVYSICSRE | inactive |
| DHHLEEYRL | inactive |
| DHYAWIFTDRLWYCRCNTVT | inactive |
| DIAKCNACGHENMFCRWMCV | inactive |
| DICLSYIFLL | 0.84 ± 0.17 |
| DILTMCEYDSDNNVGNLCYS | inactive |
| DINAVT | inactive |
| DINCSWTLQNGRGTLSE | inactive |
| DIQYWYTPVTKMTYSTNWFF | 1.26 ± 0.1 |
| DISSLR | inactive |
| DIYFTSESSVYIVHWFLFRH | inactive |
| DKIGDFNLYWHVKALLAYFY | inactive |
| DKNNLIFFLRAVCYFSSERT | 1.08 ± 0.11 |
| DKSMIFVFI | 0.864 ± 0.22 |
| DKWSWSVCNIRLSKSCNPVT | inactive |
| DLDFFGGCLFFHQGTIFYDG | inactive |
| DLDIRIFMVHDPAYCSLCSF | inactive |
| DLHVLSVK | inactive |
| DLIQLDALWDVRTHWTWGTP | inactive |
| DLNIVIPRIRAHRA | inactive |
